Measurements as given in PMC7810988, “Inositol pyrophosphates promote the interaction of SPX domains with the coiled-coil motif of PHR transcription factors to regulate plant phosphate homeostasis” (Nature Communications, 2019).

Target: the molecule itself
Assay: SEC-RALS; size-exclusion chromatography with right-angle light scattering; 50 µL of 2–10 mg/mL protein, 20 mM HEPES pH 7.5, 150 mM NaCl, Superdex 200 increase 10/300 GL, 25 °C

Row | Protein | binding result | stoichiometry N
1 | AtPHR1^280–360 KHR/A (domain or fragment, AtPHR1, Arabidopsis thaliana, residues 280-360, KHR motif mutated to alanine; not shown: 6xHis, N-terminal, cleaved) not shown | binds | 
2 | wild-type AtPHR1^222–358 (domain or fragment, AtPHR1, Arabidopsis thaliana, residues 222-358 (MYB and CC domains only); also called AtPHR1 MYB-CC; untagged AtPHR1^222–358; not shown: 6xHis, N-terminal, cleaved) not shown |  | 2
3 | full-length OsPHR2 (OsPHR2^1-426, wild type) (natural protein, OsPHR2, rice MYB-CC transcription factor, residues 1-426, called full-length; also called wild-type OsPHR2; not shown: 8xHis, N-terminal, cleaved; Strep, N-terminal, cleaved; GB1, N-terminal, cleaved) not shown |  | 4
4 | wild-type AtPHR1^280–360 (pMH-HT construct) (domain or fragment, AtPHR1, Arabidopsis thaliana, residues 280-360 (coiled-coil domain); also called AtPHR1 CC; AtPHR^280–360; not shown: 6xHis, N-terminal, cleaved) not shown |  | 4
